The supplement of paper PMC7877785
± gives the uncertainty stated by the source.

Assay: self-splicing fitness, log relative to wild type (ln ratio); higher = more splicing; Tetrahymena group I intron in knt gene, E. coli kanamycin selection, DiMSum; sequences stand for … in CUCUCU…GGAGGGAAAAGUUAUCAGGCAUGCACCUGGUAGCUAGUCUUUAAACCAAUAGAUUGCAUCGGUUUAAAAGGCAAGACCGUCAAAUUGCGGGAAAGGGGUCAACAGCCGUUCAGUACCAAGUCUCAGGGGAAACUUUGAGAUGGCCUUGCAAAGGGUAUGGUAAUAAGCUGACGGACAUGGUCCUAACCACGCAGCCAAGUCCUAAGUCAACAGAUCUUCUGUUGAUAUGGAUGCAGUUCACAGACUAAAUGUCGGUCGGGGAAGAUGUAUUCUUCUCAUAAGAUAUAGUCGGACCUCUCCUUAAUGGGAGCUAGCGGAUGAAGUGAUGCAACACUGGAGCCGCUGGGAACUAAUUUGUAUGCGAAAGUAUAUUGAUUAGUUUUGGAGUACUCGUGGUCG
In short: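 DiMSum derived fitness as the error-weighted combination of fold changes across replicates, kanamycin versus no kanamycin, normalised to wild type. E. coli BL21(DE3) held the library, which randomised all eight P1ex-region intron nucleotides within the knt kanamycin-resistance gene on pET-22b(+). Six replicate transformations grew overnight at 37°C or 30°C on LB agar with or without 25 μg/mL kanamycin, also containing 100 μg/mL carbenicillin, 50 μM IPTG and 0.2% rhamnose, and pooled colonies were amplicon-sequenced on an Illumina HiSeq 2500.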

Sequence | self-splicing fitness (ln) (30 °C) | self-splicing fitness (ln) (37 °C)
AGCAAGCAAUAUUACGAGAU | -3.64 ± 0.24 | -1.27 ± 0.21
AGCAAGCAAUAUUACGAGCC | -1.65 ± 0.37 | 
AGCAAGCAAUAUUACGAUGG | -2.63 ± 0.15 | -2.01 ± 0.2
AGCAAGCAAUAUUACGCACC | -0.646 ± 0.14 | 0.533 ± 0.18
AGCAAGCAAUAUUACGCAGA | -2.73 ± 0.22 | -2.05 ± 0.18
AGCAAGCAAUAUUACGCAGG | -2.95 ± 0.16 | -1.63 ± 0.12
AGCAAGCAAUAUUACGCAGU | -3.01 ± 0.18 | -1.28 ± 0.14
AGCAAGCAAUAUUACGCCAC | -3.17 ± 0.28 | -3.33 ± 0.28
AGCAAGCAAUAUUACGCUGG | -4.34 ± 0.41 | -2.95 ± 0.26
AGCAAGCAAUAUUACGCUUG | -4.25 ± 0.28 | -1.29 ± 0.2
AGCAAGCAAUAUUACGGAGC | -2.67 ± 0.19 | -1.31 ± 0.24
AGCAAGCAAUAUUACGGCGC | -0.695 ± 0.095 | 0.164 ± 0.16
AGCAAGCAAUAUUACGGGAA | -2.65 ± 0.14 | -1.03 ± 0.1
AGCAAGCAAUAUUACGGGUG | -1.36 ± 0.056 | -0.789 ± 0.076
AGCAAGCAAUAUUACGUAAU | -1.99 ± 0.1 | -1.27 ± 0.12
AGCAAGCAAUAUUACGUGGU | -2.79 ± 0.12 | -3.13 ± 0.18
AGCAAGCAAUAUUACGUUGC | -3.69 ± 0.19 | -1.08 ± 0.16
AGCCAGCAAUAUUACGACAU | -1.512 ± 0.012 | -0.664 ± 0.032
AGCCAGCAAUAUUACGACCC | -1.46 ± 0.34 | -0.503 ± 0.24
AGCCAGCAAUAUUACGACGA | -1.97 ± 0.1 | -1.76 ± 0.12
AGCCAGCAAUAUUACGAGCU | -3.38 ± 0.21 | -3 ± 0.35
AGCCAGCAAUAUUACGCAAC | -4.16 ± 0.32 | -1.4 ± 0.23
AGCCAGCAAUAUUACGCACA | -1.96 ± 0.13 | -0.518 ± 0.11
AGCCAGCAAUAUUACGCAGC |  | -1.21 ± 0.28
AGCCAGCAAUAUUACGCAUU | -1.65 ± 0.062 | -1.25 ± 0.075

Sequence | self-splicing fitness (ln) (30 °C) | self-splicing fitness (ln) (37 °C)
AGCCAGCAAUAUUACGCCAC |  | -3.04 ± 0.43
AGCCAGCAAUAUUACGCCGA |  | -0.449 ± 0.29
AGCCAGCAAUAUUACGCUAC | -2.52 ± 0.18 | -0.749 ± 0.17
AGCCAGCAAUAUUACGGAAG | -1.57 ± 0.1 | 0.171 ± 0.12
AGCCAGCAAUAUUACGGCCG | -1.29 ± 0.11 | -0.262 ± 0.13
AGCCAGCAAUAUUACGGCUG | -2.52 ± 0.17 | -1.53 ± 0.2
AGCCAGCAAUAUUACGGGAG | -2.56 ± 0.11 | -2.17 ± 0.14
AGCCAGCAAUAUUACGGUUG | -0.979 ± 0.051 | -0.86 ± 0.075
AGCCAGCAAUAUUACGUAAA | -3.03 ± 0.12 | -1.55 ± 0.13
AGCCAGCAAUAUUACGUACA | -3.16 ± 0.22 | -2.5 ± 0.27
AGCCAGCAAUAUUACGUCUU | -1.23 ± 0.072 | -0.744 ± 0.089
AGCCAGCAAUAUUACGUGAU | -2.31 ± 0.075 | -1.35 ± 0.098
AGCCAGCAAUAUUACGUGUA | -3.52 ± 0.14 | -1.34 ± 0.11
AGCCAGCAAUAUUACGUUAC | -4.34 ± 0.31 | -1.88 ± 0.21
AGCCAGCAAUAUUACGUUCA | -3.21 ± 0.15 | -2.72 ± 0.18
AGCCAGCAAUAUUACGUUGG | -3.52 ± 0.4 | -2.56 ± 0.23
AGCGAGCAAUAUUACGAACC | -2.18 ± 0.14 | -0.856 ± 0.15
AGCGAGCAAUAUUACGAAGA |  | -2.72 ± 0.34
AGCGAGCAAUAUUACGACUA | -0.953 ± 0.37 | -1.03 ± 0.31
AGCGAGCAAUAUUACGACUG | -1.91 ± 0.15 | -0.973 ± 0.17
AGCGAGCAAUAUUACGAGCG | -1.55 ± 0.14 | -0.201 ± 0.14
AGCGAGCAAUAUUACGCAAC | -3.6 ± 0.27 | -2.63 ± 0.21
AGCGAGCAAUAUUACGCAAG | -3.18 ± 0.4 | -2.43 ± 0.45
AGCGAGCAAUAUUACGCGAA | -2.39 ± 0.36 | -1.21 ± 0.32
